Here are results for five molecules from patent US20190135921A1, “METHODS OF PREVENTING OR TREATING SLAMF7 POSITIVE AND SLAMF7 NEGATIVE CANCERS” (ADAERATA, LIMITED PARTNERSHIP, priority 2016, published 2019).

Assay [1] deals with thymocytes. Put plainly: induction of apoptotic thymocytes (annexin V). Type of assay: cell-based, mouse. The settings on record: 1 μM, 10 hours, 37° C.; data not shown.
For assay [2], the system named is Colo205, SW480 and SW620 cells. Put plainly: in vitro phagocytosis assay, mouse BMDMs with human non-hematopoietic tumor cells. Type of assay: cell-based. As to conditions: BMDMs pretreated with LPS; FIG. 2R. As to the method: In vitro phagocytosis assays. For the microscopy-based assay, 5×10^4 macrophages were seeded overnight in a 24-well tissue culture plate. On the next day, target cells were washed and labeled with 2.5 μM of carboxyfluorescein succinimidyl ester (CFSE), using the CFSE Cell Proliferation Kit (C34554; Life Technologies, Burlington, ON, Canada). After incubating macrophages in serum-free medium for 2 hours, 2×10^5 CFSE-labeled target cells were added to the macrophages, in the presence of anti-CD47 Ab or control IgG (10 μg/mL). After incubation for 2 hours at 37° C., macrophages were extensively washed and imaged with an inverted microscope (Carl Zeiss Axiovert™ S100 TV). The phagocytosis efficiency was calculated as the number of macrophages containing CFSE^+ target cells per 100 macrophages. […] Cells were then stained on ice for 30 minutes with APC conjugated-anti-human Tac (CD25) and PE-conjugated MAb F4/80, and analyzed by flow cytometry. After gating on F4/80^+Tac^− cells (which include macrophages but exclude non-phagocytosed Tac-positive L1210 cells), phagocytosis efficiency was determined as the percentage of F4/80^+Tac^− cells containing CFSE-derived green fluorescence (detected in FL1 channel). […] They were then stained with APC-conjugated anti-F4/80 and analyzed by flow cytometry. […] Phagocytosis was monitored by microscopy. […]

The target in assay [3] is T1, mouse CD11b (integrin alphaM, alpha subunit of Mac-1) (mouse, UniProt P05555 17-1153).
T1 construct: whole, on cells; Together with CD18 it constitutes Mac-1; Endogenous protein recovered from cell lysates; also called Mac-1 (CD11b); CR3 alpha subunit
T1 sequence (P05555 17-1153): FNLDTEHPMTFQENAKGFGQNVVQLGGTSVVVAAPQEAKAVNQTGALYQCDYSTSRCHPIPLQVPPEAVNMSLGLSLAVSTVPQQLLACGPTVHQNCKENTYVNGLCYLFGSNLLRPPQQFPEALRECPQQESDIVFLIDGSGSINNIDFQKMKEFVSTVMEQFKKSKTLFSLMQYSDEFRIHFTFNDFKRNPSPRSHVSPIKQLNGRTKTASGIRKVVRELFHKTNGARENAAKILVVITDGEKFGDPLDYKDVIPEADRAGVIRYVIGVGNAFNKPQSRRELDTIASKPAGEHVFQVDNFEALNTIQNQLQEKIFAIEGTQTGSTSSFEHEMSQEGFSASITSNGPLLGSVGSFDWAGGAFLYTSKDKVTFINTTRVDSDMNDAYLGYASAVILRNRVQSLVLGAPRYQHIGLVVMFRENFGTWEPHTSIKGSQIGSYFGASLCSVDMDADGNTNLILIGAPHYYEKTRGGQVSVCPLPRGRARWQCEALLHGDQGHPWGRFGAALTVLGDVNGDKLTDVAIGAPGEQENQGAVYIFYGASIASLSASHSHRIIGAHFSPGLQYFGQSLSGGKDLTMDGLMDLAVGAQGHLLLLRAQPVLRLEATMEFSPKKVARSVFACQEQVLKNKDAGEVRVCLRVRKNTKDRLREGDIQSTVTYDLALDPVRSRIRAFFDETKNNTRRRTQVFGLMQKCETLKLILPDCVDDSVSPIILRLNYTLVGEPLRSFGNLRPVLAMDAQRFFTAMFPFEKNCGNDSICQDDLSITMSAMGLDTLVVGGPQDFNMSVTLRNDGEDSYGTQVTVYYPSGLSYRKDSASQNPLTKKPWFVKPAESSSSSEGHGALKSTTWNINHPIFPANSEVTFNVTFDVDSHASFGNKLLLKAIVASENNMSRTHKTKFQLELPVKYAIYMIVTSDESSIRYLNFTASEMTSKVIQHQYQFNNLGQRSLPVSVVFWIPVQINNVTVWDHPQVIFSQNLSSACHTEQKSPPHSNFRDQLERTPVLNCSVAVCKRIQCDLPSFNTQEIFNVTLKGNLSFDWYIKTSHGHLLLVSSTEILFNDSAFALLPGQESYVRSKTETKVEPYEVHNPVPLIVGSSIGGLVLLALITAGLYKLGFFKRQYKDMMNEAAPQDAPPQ
As to the kind of experiment: anti-CD11b immunoprecipitation from WT and CD11b KO BMDM lysates, mass spectrometry. The protocol: (§1) Authenticated cells. (FIG. 9D) Lysates from the mouse macrophage cell line RAW264.7 expressing GFP alone or in combination with a FLAG-tagged version of mouse SLAMF7 (FLAG-SLAMF7) were immunoprecipitated with anti-FLAG. They were then probed by immunoblotting with anti-CD11b (Mac-1) or anti-SLAMF7. Total cell lysates were analyzed in parallel. (FIG. 9E) Co-localization of SLAMF7 and CD11b in RAW264.7 cells expressing GFP alone or with FLAG-SLAMF7 assessed by immunofluorescence. Semi-confluent RAW264.7 cells expressing GFP alone (bottom) or in combination with FLAG-SLAMF7 (top) were fixed and stained with antibodies against FLAG, CD11b (Mac-1) or CD18, as detailed in Example 1. Staining was detected by confocal microscopy. Scale bar, 5 μm. […] (FIG. 9F) As in FIG. 9E, except that only RAW264.7 cells expressing FLAG-SLAMF7 were analyzed and that antibodies coupled to different fluorophores were used. […] (FIG. 9G-A and FIG. 9G-B) RAW264.7 derivatives expressing GFP alone or in combination with FLAG-SLAMF7 were analyzed by flow cytometry, using antibodies directed against FLAG and SLAMF7 (dotted lines). […]
(§2) Immunoprecipitations, mass spectrometry, immunoblots. […] In brief, immunoprecipitated proteins were digested with trypsin (Promega, Madison, Wis.) and analyzed by LC-MS/MS on a LTQ Orbitrap™ Velos (ThermoFisher Scientific, Bremen, Germany) equipped with a Proxeon nanoelectrospray™ ion source. […]

For assay [4], the target named is T1, mouse CD11b (integrin alphaM, alpha …). As to the kind of experiment: anti-FLAG IP from RAW264.7 cells expressing FLAG-SLAMF7, anti-CD11b immunoblot; confocal co-localization. As to the method: as §1, §2
For orientation: Immunoblotting shows a protein as a band on a membrane.

As to `C[C@@H]1C[C@H]2[C@@H]3CCC4=CC(=O)C=C[C@]4(C)[C@@]3(F)[C@@H](O)C[C@]2(C)[C@@]1(O)C(=O)CO` [dexamethasone], the “cells becoming apoptotic (annexin V-positive)” value in assay [1] is “about 70%”.

As to lipopolysaccharide [LPS], in assay [2], the “phagocytosis of non-hematopoietic targets” value is “phagocytosis of non-hematopoietic targets was seen”.

B1: mouse CD16 (Fc receptor) (receptor, UniProt P08508 31-261, looked up)
chain: ALPKAVVKLDPPWIQVLKEDMVTLMCEGTHNPGNSSTQWFHNGRSIRSQVQASYTFKATVNDSGEYRCQMEQTRLSDPVDLGVISDWLLLQTPQRVFLEGETITLRCHSWRNKLLNRISFFHNEKSVRYHHYKSNFSIPKANHSHSGDYYCKGSLGSTQHQSKPVTITVQDPATTSSISLVWYHTAFSLVMCLLFAVDTGLYFYVRRNLQTPREYWRKSLSIRKHQAPQDK
notes: whole, on cells
On to B1, for which the binding result in assay [3] is recorded as “no binding”.

B2: FLAG-tagged version of mouse SLAMF7 (receptor, UniProt Q8BHK6 23-333, looked up)
chain: SGTLKKVAGALDGSVTFTLNITEIKVDYVVWTFNTFFLAMVKKDGVTSQSSNKERIVFPDGLYSMKLSQLKKNDSGAYRAEIYSTSSQASLIQEYVLHVYKHLSRPKVTIDRQSNKNGTCVINLTCSTDQDGENVTYSWKAVGQGDNQFHDGATLSIAWRSGEKDQALTCMARNPVSNSFSTPVFPQKLCEDAATDLTSLRGILYILCFSAVLILFAVLLTIFHTTWIKKGKGCEEDKKRVDRHQEMPDLCPHLEENADYDTIPYTEKRRPEEDAPNTFYSTVQIPKVVKSPSSLPAKPLVPRSLSFENVI
notes: whole, on cells; It was immunoprecipitated with anti-FLAG from RAW264.7 lysates; also called FLAG-SLAMF7; not shown: FLAG tag
B2: the binding result in assay [4] was “binds”.

B3: mouse CD64 (Fc receptor) (receptor, UniProt P26151 25-404, looked up)
chain: EVVNATKAVITLQPPWVSIFQKENVTLWCEGPHLPGDSSTQWFINGTAVQISTPSYSIPEASFQDSGEYRCQIGSSMPSDPVQLQIHNDWLLLQASRRVLTEGEPLALRCHGWKNKLVYNVVFYRNGKSFQFSSDSEVAILKTNLSHSGIYHCSGTGRHRYTSAGVSITVKELFTTPVLRASVSSPFPEGSLVTLNCETNLLLQRPGLQLHFSFYVGSKILEYRNTSSEYHIARAEREDAGFYWCEVATEDSSVLKRSPELELQVLGPQSSAPVWFHILFYLSVGIMFSLNTVLYVKIHRLQREKKYNLEVPLVSEQGKKANSFQQVRSDGVYEEVTATASQTTPKEAPDGPRSSVGDCGPEQPEPLPPSDSTGAQTSQS
notes: whole, on cells
B3: the binding result in assay [3] is on record as “no binding”.
